Columns and labels:
DHX30N = biological target: T1, DHX30N (human, UniProt Q7L2E3-3 1-152); assay: fluorescence polarization; 30 nM RNA, pH 6.0 NMR buffer; EMSA: 50 mM Tris-HCl pH 7.5, 150 mM NaCl, 10% glycerol, on ice, 1% agarose 4 C; FP and NMR: pH 6.0 NMR buffer (composition not in material); Ni-NTA: 20 mM Na phosphate pH 6.6, 100 mM NaCl, 20 mM beta-mercaptoethanol, 1% glycerol, room temperature; details: protein: recombinant
T1 sequence: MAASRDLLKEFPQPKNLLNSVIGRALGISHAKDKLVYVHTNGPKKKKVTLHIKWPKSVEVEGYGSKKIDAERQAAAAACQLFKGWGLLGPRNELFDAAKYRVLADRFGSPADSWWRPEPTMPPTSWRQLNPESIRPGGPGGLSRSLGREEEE

NS1 RBD = NS1 RBD (Influenza A virus Ud, UniProt P03495 1-73); assay: NMR; equimolar dsRNA, pH 6.0 NMR buffer; details: protein: recombinant; tags: none (SUMO-His6 cleaved); chain copies: 2
Sequence of NS1 RBD (P03495 1-73): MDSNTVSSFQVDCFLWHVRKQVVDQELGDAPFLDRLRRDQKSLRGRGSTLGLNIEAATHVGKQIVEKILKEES

With CCAUCCUCUACAGGCG (ssRNA) [16-nt sense ssRNA] the Kd (DHX30N; label: 5' FAM) was ~500 nM.

B1: 16-bp dsRNA (dsRNA)
RNA 1: CCAUCCUCUACAGGCG
RNA 2: CGCCUGUAGAGGAUGG
Work on B1 yielded a Kd (DHX30N; label: FAM (sense and antisense)) of ~40 nM.

B2: 33-bp dsRNA (dsRNA)
RNA 1: CGAGCUCGCCCGGGGAUCCUCUAGAGUCGACCUGC
RNA 2: CUGCAGGUCGACUCUAGAGGAUCCCCGGGCGAGCU
B2: binds (NS1 RBD).

From PMC6943125
